The target in this assay is CCR4 (human) (UniProt P51679). The assay can be described thus: cell-based or functional assay.
Chain of UniProt P51679 (P51679 whole entry): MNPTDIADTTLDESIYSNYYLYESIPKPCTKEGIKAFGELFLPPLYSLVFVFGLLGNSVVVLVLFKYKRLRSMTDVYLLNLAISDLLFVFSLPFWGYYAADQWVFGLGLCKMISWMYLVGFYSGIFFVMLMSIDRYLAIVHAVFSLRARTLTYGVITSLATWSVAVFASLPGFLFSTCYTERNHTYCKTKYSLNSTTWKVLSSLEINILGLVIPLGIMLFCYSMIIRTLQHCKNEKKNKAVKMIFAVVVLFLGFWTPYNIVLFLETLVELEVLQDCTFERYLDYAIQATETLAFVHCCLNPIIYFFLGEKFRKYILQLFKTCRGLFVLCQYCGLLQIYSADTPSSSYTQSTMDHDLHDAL

Consider mogamulizumab (antibody), for which the EC50 (pM), cytotoxicity of the negative control antibody against MT-2 cells expressing CCR4 with T-LAK effector cells (calcein release) is 1140 pM and the Emax (%), cytotoxicity of the negative control antibody against MT-2 cells expressing CCR4 with T-LAK effector cells (calcein release) was 8.5%.

The record behind these values is US20260078182A1.
